Measured values published in patent US20060226082A1, “Methods for substrate and modulator screening using enzyme-reactor chromatography/tandem mass spectrometry” (McMaster University, priority 2005, published 2006).

Substrate: Nc1ncnc2c1ncn2[C@@H]1O[C@H](CO)[C@@H](O)[C@H]1O
Test: Absorbance-based assay of ADA in solution
Format: biochemical, bovine
Settings: other: ADA in solution, absorbance assay (FIG. 7)
Description: FIG. 7 is a graph showing the assessment of Km values for ADA in solution using an absorbance-based assay.
The KI value was determined by extrapolation of IC50 values to the point of zero substrate concentration. The method is based on the derivation described by Cheng and Prusoff,^26 as shown below. Km values were obtained using immobilized enzyme reactor columns by plotting the concentration of product formed upon infusion of a given concentration of substrate and fitting the data to the Michaelis-Menten equation. The data was compared to that obtained using a conventional absorbance based assay (see below).^27

B1: adenosine deaminase (ADA) in solution (Bos taurus) (protein)
chain: MAQTPAFNKPKVELHVHLDGAIKPETILYYGRKRGIALPADTPEELQNIIGMDKPLSLPEFLAKFDYYMPAIAGCREAVKRIAYEFVEMKAKDGVVYVEVRYSPHLLANSKVEPIPWNQAEGDLTPDEVVSLVNQGLQEGERDFGVKVRSILCCMRHQPSWSSEVVELCKKYREQTVVAIDLAGDETIEGSSLFPGHVKAYAEAVKSGVHRTVHAGEVGSANVVKEAVDTLKTERLGHGYHTLEDATLYNRLRQENMHFEVCPWSSYLTGAWKPDTEHPVVRFKNDQVNYSLNTDDPLIFKSTLDTDYQMTKNEMGFTEEEFKRLNINAAKSSFLPEDEKKELLDLLYKAYGMPSPASAEQCL
notes: Adenosine deaminase (ADA, Type V, from bovine intestine, EC 3.5.4.4); purchased Sigma-Aldrich (Oakville, Ontario, Canada) Type V (catalogue number not given); host or cells: bovine intestine (tissue-derived)
Protein B1 has a Km of 89 µM.
